Test results: US20170253670A1 (Hoffmann-La Roche, published 2017)
Several values for one entry are separate records, joined by “and”; a condition that tells them apart may be missing. Identical values can stand only once.

T1: recombinant human BCMA Fc(kih) (human, UniProt Q02223 4-53, biotin on avi-tag where coupled to SA chip ; biotin on the avi-tag of the Fc-knob chain where coupled to the SA chip (tag not in the letters))
T1 construct: also called huBCMA Fc(kih); huBCMA; not shown: human IgG1 hinge-Fc(knob)-avi fused to the ECD, and the unfused Fc(hole) chain
T1 chain: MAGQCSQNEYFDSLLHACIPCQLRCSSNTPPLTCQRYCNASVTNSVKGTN

T2: human BCMA on myeloma cells (H929, U266) (human, UniProt Q02223 1-184)
T2 sequence (looked up): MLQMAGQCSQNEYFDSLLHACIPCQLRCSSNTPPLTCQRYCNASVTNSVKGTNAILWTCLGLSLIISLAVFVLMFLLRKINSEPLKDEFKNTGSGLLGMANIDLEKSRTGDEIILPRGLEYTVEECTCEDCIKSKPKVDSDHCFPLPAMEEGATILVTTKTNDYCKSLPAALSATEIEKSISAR

T3: recombinant murine BCMA Fc(kih) (murine, UniProt O88472 2-49, biotinylated at the avi-tag of the Fc knob chain (not in the letters))
T3 construct: also called muBCMA Fc(kih); not shown: human IgG1 hinge-Fc(knob)-avi and the unfused Fc(hole) chain
T3 chain: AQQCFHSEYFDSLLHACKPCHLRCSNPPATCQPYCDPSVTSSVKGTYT

T4: MUC1 SEA-avi-His, biotinylated (human, biotin on avi tag)
T4 construct: E. coli derived; also called MUC1 antigen; SEA domain of human MUC1
T4 chain: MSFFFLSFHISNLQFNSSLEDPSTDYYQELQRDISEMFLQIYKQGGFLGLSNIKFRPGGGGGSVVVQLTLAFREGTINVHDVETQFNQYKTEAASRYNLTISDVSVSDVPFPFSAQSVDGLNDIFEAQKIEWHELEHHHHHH


Columns and labels:
[1] = target: T1, recombinant human BCMA Fc(kih); test: SPR Biacore, 1:1 Langmuir fit, as in Example 41
Protocol: The affinity of the interaction between anti-BCMA antibodies or BCMA-TCB CLC antibodies and recombinant human BCMA Fc(kih) was also determined. Anti-human Fab antibody (GE Healthcare) was directly coupled on a CM5 chip at pH 5.0 using the standard amine coupling kit (Biacore, Freiburg/Germany). The immobilization level was about 6500 RU. […] The dissociation was monitored for 120 or 400 seconds. Bulk refractive index differences were corrected for by subtracting the response obtained on reference flow cell. […] Kinetic constants were derived using the Biacore T200 Evaluation Software (v 1.0, Biacore AB, Uppsala/Sweden), to fit rate equations for 1:1 Langmuir binding by numerical integration (Table 41).
The anti-BCMA antibody comprising two heavy chains of 83A10 and two common light chains were produced using the general techniques for generation of bivalent IgG antibodies as described in the Material and general methods section.

[2] = target: T2, human BCMA on myeloma cells (H929, U266); test: cell-based or functional assay
[3] = target: T3, recombinant murine BCMA Fc(kih); test: SPR Biacore, binder captured via anti-Fab, BCMA-Fc analyte
[4] = target: T1, recombinant human BCMA Fc(kih); test: as above
[5] = target: T5, human FolR1 on cells (HeLa, SKOV3, HT-29, transfected HEK) (human, UniProt P15328 25-234); test: flow cytometry on HeLa cells, fluorescently labeled anti-human secondary antibody
T5 construct: whole, on cells
Protocol: FIGS. 2A-C depict graphs summarizing Binding of FoLR1 IgG binders to HeLa cells. Binding of newly generated FolR1 binders to FolR1 expressed on HeLa cells were determined by flow cytometry. Bound antibodies were detected with a fluorescently labeled anti-human secondary antibody.
The identified binders were converted into a human IgG1 format and binding to FolR1 high expressing HeLa cells was addressed. […] In a next step the selected clones were tested for specificity to human FolR1 by excluding binding to the closely related human FolR2. HEK cells were transiently transfected with either human FolR1 or human FolR2 to address specificity. […] In parallel cross-reactivity of the FolR1 clones to cyno FolR1 was addressed by performing binding studies to HEK cells transiently transfected with cyno FolR1. […] These FolR1 TCBs were then used to compare induction of internalization after binding to FolR1 on HeLa cells.

[6] = target: T4, MUC1 SEA-avi-His, biotinylated; test: SPR (ProteOn XPR36), biotinylated MUC1 on NLC chip, Fab as analyte, 1:1 Langmuir fit
Protocol: Immobilization of recombinant antigens (ligand): Antigens were diluted with PBST (10 mM phosphate, 150 mM sodium chloride pH 7.4, 0.005% Tween 20) to 10 μg/ml, then injected at 30 μl/minute at varying contact times, to achieve immobilization levels of about 200 response units (RU) in vertical orientation. […] Buffer (PBST) was injected along the sixth channel to provide an “in-line” blank for referencing. Association rate constants (kₒₙ) and dissociation rate constants (koff) were calculated using a simple one-to-one Langmuir binding model in ProteOn Manager v3.1 software by simultaneously fitting the association and dissociation sensorgrams. The equilibrium dissociation constant (KD) was calculated as the ratio koff/kₒₙ. Regeneration was performed in horizontal orientation using 10 mM Glycine, pH 1.5 at a flow rate of 100 ul/min for a contact time of 30 s.

T5 sequence (P15328 25-234): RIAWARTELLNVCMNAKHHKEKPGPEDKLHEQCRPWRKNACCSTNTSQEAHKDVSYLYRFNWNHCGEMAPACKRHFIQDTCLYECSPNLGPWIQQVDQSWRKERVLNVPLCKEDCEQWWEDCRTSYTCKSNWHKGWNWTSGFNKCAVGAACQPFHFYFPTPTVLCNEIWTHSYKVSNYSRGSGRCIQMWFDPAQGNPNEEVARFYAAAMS

| Binder | EC50 (read off the curve) [5] | Kd [6] | koff [6] | kon [6] | also measured |
| --- | --- | --- | --- | --- | --- |
| 83A10-CLC anti-BCMA IgG (antibody, V domains shown, two heavy chains of 83A10 and two common light chains) VH: not shown VL: QAVVTQEPSLTVSPGGTVTLTCGSSTGAVTTSNYANWVQEKPGQAFRGLIGGTNKRAPGTPARFSGSLLGGKAALTLSGAQPEDEAEYYCALWYSNLWVFGGGTKLTVLG |  |  |  |  | Kd [1]: 24.3 nM; koff [1]: 0.00213 s⁻¹; kon [1]: 87800 M⁻¹ s⁻¹ |
| pSCHLI333-TCB CLC (bispecific antibody, also called pSCHLI333 BCMAxCD3 TCB) heavy 1: not shown heavy 2: QVQLVQSGAEVKKPGASVKVSCKASGYMFSSFGMSWVRQAPGQGLEWMGWIYPVGQGTWYAQKFQGRVTMTRDTSTSTVYMELSSLRSEDTAVYYCARVSYPPSHFDYWGQGTLVTVSSASTKGPSVFPLAPSSKSTSGGTAALGCLVKDYFPEPVTVSWNSGALTSGVHTFPAVLQSSGLYSLSSVVTVPSSSLGTQTYICNVNHKPSNTKVDKKVEPKSCDKTHTCPPCPAPEAAGGPSVFLFPPKPKDTLMISRTPEVTCVVVDVSHEDPEVKFNWYVDGVEVHNAKTKPREEQYNSTYRVVSVLTVLHQDWLNGKEYKCKVSNKALGAPIEKTISKAKGQPREPQVCTLPPSRDELTKNQVSLSCAVKGFYPSDIAVEWESNGQPENNYKTTPPVLDSDGSFFLVSKLTVDKSRWQQGNVFSCSVMHEALHNHYTQKSLSLSPGK light: QAVVTQEPSLTVSPGGTVTLTCGSSTGAVTTSNYANWVQEKPGQAFRGLIGGTNKRAPGTPARFSGSLLGGKAALTLSGAQPEDEAEYYCALWYSNLWVFGGGTKLTVLGQPKAAPSVTLFPPSSEELQANKATLVCLISDFYPGAVTVAWKADSSPVKAGVETTTPSKQSNNKYAASSYLSLTPEQWKSHRSYSCQVTHEGSTVEKTVAPTECS |  |  |  |  | EC50 redirected T-cell killing, H929 [2]: 980 pM and 0.19 µg/ml; Kd [3]: 7190 nM; Kd [4]: 164 nM |
| pSCHLI373-TCB CLC (bispecific antibody) heavy 1: not shown heavy 2: EVQLVESGGGLVKPGGSLRLSCAASGFSFSNSWMNWVRQAPGKGLEWVGTIRQKTYGGTTDYAAPVKGRFTISRDDSKNTLYLQMNSLKTEDTAVYYCTTGGLFGYWDYWGQGTLVTVSSASTKGPSVFPLAPSSKSTSGGTAALGCLVKDYFPEPVTVSWNSGALTSGVHTFPAVLQSSGLYSLSSVVTVPSSSLGTQTYICNVNHKPSNTKVDKKVEPKSCDKTHTCPPCPAPEAAGGPSVFLFPPKPKDTLMISRTPEVTCVVVDVSHEDPEVKFNWYVDGVEVHNAKTKPREEQYNSTYRVVSVLTVLHQDWLNGKEYKCKVSNKALGAPIEKTISKAKGQPREPQVCTLPPSRDELTKNQVSLSCAVKGFYPSDIAVEWESNGQPENNYKTTPPVLDSDGSFFLVSKLTVDKSRWQQGNVFSCSVMHEALHNHYTQKSLSLSPGK light: QAVVTQEPSLTVSPGGTVTLTCGSSTGAVTTSNYANWVQEKPGQAFRGLIGGTNKRAPGTPARFSGSLLGGKAALTLSGAQPEDEAEYYCALWYSNLWVFGGGTKLTVLGQPKAAPSVTLFPPSSEELQANKATLVCLISDFYPGAVTVAWKADSSPVKAGVETTTPSKQSNNKYAASSYLSLTPEQWKSHRSYSCQVTHEGSTVEKTVAPTECS |  |  |  |  | EC50 redirected T-cell killing, H929 [2]: 1590 pM and 0.31 µg/ml |
| Mov19 IgG (antibody, V domains shown) VH: QVQLQQSGAELVKPGASVKISCKASGYSFTGYFMNWVKQSHGKSLEWIGRIHPYDGDTFYNQNFKDKATLTVDKSSNTAHMELLSLTSEDFAVYYCTRYDGSRAMDYWGQGTTVTVSS VL: DIELTQSPASLAVSLGQRAIISCKASQSVSFAGTSLMHWYHQKPGQQPKLLIYRASNLEAGVPTRFSGSGSKTDFTLNIHPVEEEDAATYYCQQSREYPYTFGGGTKLEIK | ~1 µg/mL |  |  |  |  |
| 19E5 IgG (antibody, V domains shown, human IgG1) VH: QVQLVQSGAEVKKPGASVKVSCKASGYTFTSYYMHWVRQAPGQGLEWMGIINPSGGSTSYAQKFQGRVTMTRDTSTSTVYMELSSLRSEDTAVYYCARGEWRRYTSFDYWGQGTLVTVSS VL: QAVVTQEPSLTVSPGGTVTLTCGSSTGAVTTSNYANWVQEKPGQAFRGLIGGTNKRAPGTPARFSGSLLGGKAALTLSGAQPEDEAEYYCALWYSNLWVFGGGTKLTVL | ~2 µg/mL |  |  |  |  |
| 58D6 Fab (Fab, V domains shown, bacterial Fab) VH: not shown VL: QAVVTQEPSLTVSPGGTVTLTCGSSTGAVTTSNYANWVQEKPGQAFRGLIGGTNKRAPGTPARFSGSLLGGKAALTLSGAQPEDEAEYYCALWYSNLWVFGGGTKLTVL |  | 23.5 nM | 0.000798 s⁻¹ | 34000 M⁻¹ s⁻¹ |  |
| 19A4 IgG (antibody, V domains shown, human IgG1) VH: QVQLVQSGAEVKKPGASVKVSCKASGYTFTSYYMHWVRQAPGQGLEWMGIINPSGGSTSYAQKFQGRVTMTRDTSTSTVYMELSSLRSEDTAVYYCARGGWIRWEHFDYWGQGTLVTVSS VL: QAVVTQEPSLTVSPGGTVTLTCGSSTGAVTTSNYANWVQEKPGQAFRGLIGGTNKRAPGTPARFSGSLLGGKAALTLSGAQPEDEAEYYCALWYSNLWVFGGGTKLTVL | ~3 µg/mL |  |  |  |  |
| 106D2 Fab (Fab, V domains shown, bacterial Fab) VH: EVQLLESGGGLVQPGGSLRLSCAASGFTFRVYAMSWVRQAPGKGLEWVSGISETGSYTYYADSVKGRFTISRDNSKNTLYLQMNSLRAEDTAVYYCARYPYGFDYWGQGTLVTVSS VL: QAVVTQEPSLTVSPGGTVTLTCGSSTGAVTTSNYANWVQEKPGQAFRGLIGGTNKRAPGTPARFSGSLLGGKAALTLSGAQPEDEAEYYCALWYSNLWVFGGGTKLTVL |  | 30 nM | 0.000295 s⁻¹ | 9800 M⁻¹ s⁻¹ |  |
| 110A5 Fab (Fab, V domains shown, bacterial Fab) VH: not shown VL: QAVVTQEPSLTVSPGGTVTLTCGSSTGAVTTSNYANWVQEKPGQAFRGLIGGTNKRAPGTPARFSGSLLGGKAALTLSGAQPEDEAEYYCALWYSNLWVFGGGTKLTVL |  | 134 nM | 0.00164 s⁻¹ | 12200 M⁻¹ s⁻¹ |  |
| 20G6 IgG (antibody, V domains shown, human IgG1) VH: QVQLVQSGAEVKKPGASVKVSCKASGYTFTSYYMHWVRQAPGQGLEWMGIINPSGGSTSYAQKFQGRVTMTRDTSTSTVYMELSSLRSEDTAVYYCARGEWIRYYHFDYWGQGTLVTVSS VL: QAVVTQEPSLTVSPGGTVTLTCGSSTGAVTTSNYANWVQEKPGQAFRGLIGGTNKRAPGTPARFSGSLLGGKAALTLSGAQPEDEAEYYCALWYSNLWVFGGGTKLTVL |  |  |  |  | binding result [5]: binds |
